Results: patent US20060159681A1 (FUNCTIONAL NEUROSCIENCE, published 2006)
Blank lines part the entries; values can stand above or below the binder they belong to.

Columns and labels:
Hsp70 = Hsp70 (UniProt P0DMV8 1-641); assay: co-immunoprecipitation from transfected HEK293T lysate
Procedure: (§1) Samples were harvested in lysis-buffer (50 mM Tris-HCl pH 7.4, 150 mM NaCl, 2 mM EDTA, 1% Triton X-100) supplemented with protease inhibitors (Roche). For complete solubilization of the pellet in synphilin ubiquitinylation experiments boiling lysis-buffer with 1% SDS was used. IPs were performed overnight followed by incubation with Protein G sepharose beads (Amersham). PDAs were performed with equimolar amounts of GST- and His-fusion proteins for 1 hr (4° C.). Beads were washed once with lysis-buffer and three times with PBS (pH 7.4).
Therefore, it was tested whether BAG5 may associate with itself by co-transfecting N-terminus GFP-tagged BAG5 (GFP-BAG5) with FLAG-BAG5 in HEK293T cells. […] Indeed, both GFP-BAG5 and GFP-BAG5(DARA) co-immunoprecipitated with FLAG-BAG5(DARA) (FIG. 3E, lane 4 and 6, respectively). It was also confirmed that Hsp70 co-immunoprecipitated with FLAG-BAG5 and not FLAG-BAG5(DARA) (FIG. 3E, lanes 1, 3 and 5 vs. 2, 4 and 6). […] Similar to results from FIG. 3E, GST-BAG5 and GST-BAG5(DARA) interacted with both GFP-BAG5 and GFP-BAG5(DARA), whereas only GST-BAG5 interacted with Hsp70 (FIG. 3F). […] Therefore complexes of BAG5 which contained BAG5(DARA) were unable to bind Hsp70 and inhibited BAG5 activity.

His-Hsp70 = target: T1, His-Hsp70 (human, UniProt P0DMV8 1-641); assay: in vitro GST pull-down
T1 construct: Purified from E. coli (pDEST17) for the pull-down assays; also called full-length Hsp70; not shown: N-terminal hexa-histidine tag from a pDEST vector
Procedure: as §1
To further examine the nature of the association between parkin, Hsp70 and BAG5, in vitro pull-down experiments using GST-Hsp70, GST-BAG5, or GST-BAG5(DARA) with recombinant N-terminus His-tagged parkin were used. […] Thus, BAG5 interacted directly with parkin in the absence of Hsp70.

[1] = target: T2, endogenous Hsp70 in human brain lysate (human, UniProt P0DMV8 2-641); assay: GST pull-down from human brain SNpc lysate
T2 construct: Native protein in tissue lysate, detected with a monoclonal anti-Hsp70 antibody
T2 sequence (P0DMV8 2-641): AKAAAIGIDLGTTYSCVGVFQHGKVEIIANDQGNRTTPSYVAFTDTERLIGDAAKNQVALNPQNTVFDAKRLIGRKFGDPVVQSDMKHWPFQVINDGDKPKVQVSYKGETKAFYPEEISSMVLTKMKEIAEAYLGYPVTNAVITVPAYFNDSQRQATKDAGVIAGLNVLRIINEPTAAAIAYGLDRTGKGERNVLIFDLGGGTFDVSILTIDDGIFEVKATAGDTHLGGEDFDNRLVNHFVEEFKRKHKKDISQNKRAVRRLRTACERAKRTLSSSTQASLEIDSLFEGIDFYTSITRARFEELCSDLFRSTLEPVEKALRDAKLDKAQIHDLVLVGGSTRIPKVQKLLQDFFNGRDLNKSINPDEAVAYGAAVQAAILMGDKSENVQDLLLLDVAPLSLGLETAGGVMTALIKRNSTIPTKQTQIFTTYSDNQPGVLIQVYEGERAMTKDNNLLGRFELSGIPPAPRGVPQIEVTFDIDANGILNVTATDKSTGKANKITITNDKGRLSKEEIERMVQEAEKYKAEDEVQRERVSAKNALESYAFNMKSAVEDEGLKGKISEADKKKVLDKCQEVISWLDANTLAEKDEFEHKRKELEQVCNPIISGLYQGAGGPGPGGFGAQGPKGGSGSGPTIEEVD

Hsp70, sequence (P0DMV8 whole entry, the tested form may be a part): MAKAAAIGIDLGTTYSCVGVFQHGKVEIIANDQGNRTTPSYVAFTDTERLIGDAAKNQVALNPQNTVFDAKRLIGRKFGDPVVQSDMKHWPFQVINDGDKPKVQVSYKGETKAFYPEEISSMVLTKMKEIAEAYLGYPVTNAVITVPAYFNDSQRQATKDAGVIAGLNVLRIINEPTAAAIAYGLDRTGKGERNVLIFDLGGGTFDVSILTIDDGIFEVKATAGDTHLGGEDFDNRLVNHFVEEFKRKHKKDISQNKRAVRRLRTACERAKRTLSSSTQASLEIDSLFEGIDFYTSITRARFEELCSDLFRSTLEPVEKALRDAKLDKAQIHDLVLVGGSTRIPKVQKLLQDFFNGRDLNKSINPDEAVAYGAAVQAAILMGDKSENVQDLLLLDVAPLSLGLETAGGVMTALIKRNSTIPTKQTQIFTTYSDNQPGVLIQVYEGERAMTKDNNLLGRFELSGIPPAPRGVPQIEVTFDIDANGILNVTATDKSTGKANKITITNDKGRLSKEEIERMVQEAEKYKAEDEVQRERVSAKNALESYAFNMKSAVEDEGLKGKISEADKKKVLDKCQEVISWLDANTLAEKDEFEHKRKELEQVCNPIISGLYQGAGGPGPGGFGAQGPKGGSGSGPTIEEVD
T1 sequence (P0DMV8 whole entry): as the sequence (P0DMV8 whole entry, the tested form may be a part) above

- binding result (Hsp70): no binding
B1: FLAG-BAG5(DARA) (other, not shown: small tags and cut ends)
chain: MDMGNQHPSISRLQEIQKEVKSVEQQVIGFSGLSDDKNYKKLERILTKQLFEIASVDTEGKGDIQQAAKRAAQETERLLKELEQNANHPHRIEIQNIFEEAQSLVREKIVPFYNGGNCVTDEFEEGIQDIILRLTHVKTGGKISLRKARYHTLTKICAVQEIIEDCMKKQPSLPLSEDAHPSVAKINFVMCEVNKARGVLIALLMGVNNNETCRHLSCVLSGLIADLAALDVCGRTEIRNYAREVVEDINKLLKYLDLEEEADTTKAFDLRQNHSILKIEKVLKRMREIKNELLQAQNPSELYLSSKTELQGLIGQLAEVSLEKNPCIREAARRAVIEVQTLITYIDLKEALEKRKLFACEEHPSHKAVWNVLGNLSEIQGEVLSFDGNRTDKNYIRLEELLTKQLLALAAVDPQGEEKCKAAAKQAVRLAQNILSYLDLKSDEWEY
notes: Expressed by transfection in HEK293T cells

- binding result (His-Hsp70): no binding
- binding result [1]: no binding
B2: GST-BAG5(DARA) (other, not shown: a dimerising Fc or GST; large carriers; small tags and cut ends)
chain: B1 chain
notes: also called mutant BAG5(DARA)
